Results taken from article PMC12240383, “Human herpesvirus 6B glycoprotein B postfusion structure, vulnerability mapping, and receptor recognition” (PLOS Pathogens, 2025).

T1: HHV-6B gB ectodomain (residues 1-680, strain Z29) with fusion loop substitutions, C-terminal Flag-tag (Human herpesvirus 6B (strain Z29), UniProt P36320 20-680, VGVV102-105 to HRTT | WLY187-189 to ATH)
T1 construct: signal peptide in the construct (predicted signal peptide residues 1-19); glycoprotein B of human herpesvirus 6B strain Z29, ectodomain residues 1-680; Same ectodomain as m1 (a trimer in the structure) with a Flag-tag instead of the His-tag; also called HHV-6B gB-Flag; wild-type HHV-6B gB-Flag; source: Expi293F, transiently transfected, purified from supernatant (Flag beads, 3xFlag peptide …)
T1 sequence: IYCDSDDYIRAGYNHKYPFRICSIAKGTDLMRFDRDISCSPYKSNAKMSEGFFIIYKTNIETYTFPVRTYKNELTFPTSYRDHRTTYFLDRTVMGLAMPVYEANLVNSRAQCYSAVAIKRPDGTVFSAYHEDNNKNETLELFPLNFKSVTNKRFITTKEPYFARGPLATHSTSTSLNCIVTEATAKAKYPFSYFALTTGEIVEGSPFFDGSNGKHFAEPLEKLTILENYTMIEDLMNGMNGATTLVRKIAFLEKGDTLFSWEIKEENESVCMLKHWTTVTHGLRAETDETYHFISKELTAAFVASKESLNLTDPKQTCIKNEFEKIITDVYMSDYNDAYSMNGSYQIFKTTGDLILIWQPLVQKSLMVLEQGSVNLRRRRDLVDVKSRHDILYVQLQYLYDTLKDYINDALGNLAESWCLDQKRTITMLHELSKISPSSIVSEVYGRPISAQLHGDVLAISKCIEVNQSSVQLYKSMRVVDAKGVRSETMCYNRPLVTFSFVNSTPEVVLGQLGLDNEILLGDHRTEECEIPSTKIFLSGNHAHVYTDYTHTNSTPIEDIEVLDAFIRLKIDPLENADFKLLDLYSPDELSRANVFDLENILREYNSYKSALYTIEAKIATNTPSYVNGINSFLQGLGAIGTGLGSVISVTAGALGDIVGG

B1: HHV-6B gB ectodomain (residues 1-680, strain Z29) with fusion loop substitutions, C-terminal His-tag (domain or fragment)
chain: IYCDSDDYIRAGYNHKYPFRICSIAKGTDLMRFDRDISCSPYKSNAKMSEGFFIIYKTNIETYTFPVRTYKNELTFPTSYRDHRTTYFLDRTVMGLAMPVYEANLVNSRAQCYSAVAIKRPDGTVFSAYHEDNNKNETLELFPLNFKSVTNKRFITTKEPYFARGPLATHSTSTSLNCIVTEATAKAKYPFSYFALTTGEIVEGSPFFDGSNGKHFAEPLEKLTILENYTMIEDLMNGMNGATTLVRKIAFLEKGDTLFSWEIKEENESVCMLKHWTTVTHGLRAETDETYHFISKELTAAFVASKESLNLTDPKQTCIKNEFEKIITDVYMSDYNDAYSMNGSYQIFKTTGDLILIWQPLVQKSLMVLEQGSVNLRRRRDLVDVKSRHDILYVQLQYLYDTLKDYINDALGNLAESWCLDQKRTITMLHELSKISPSSIVSEVYGRPISAQLHGDVLAISKCIEVNQSSVQLYKSMRVVDAKGVRSETMCYNRPLVTFSFVNSTPEVVLGQLGLDNEILLGDHRTEECEIPSTKIFLSGNHAHVYTDYTHTNSTPIEDIEVLDAFIRLKIDPLENADFKLLDLYSPDELSRANVFDLENILREYNSYKSALYTIEAKIATNTPSYVNGINSFLQGLGAIGTGLGSVISVTAGALGDIVGG
notes: signal peptide in the construct (predicted signal peptide residues 1-19); glycoprotein B of human herpesvirus 6B strain Z29, ectodomain residues 1-680; furin site 396RRRR|D400 not mutated, mostly uncleaved; also called HHV-6B gB-His; HHV-6B gB680-mut; source: Expi293F, transiently transfected, purified from supernatant (Ni Sepharose IMAC, Superdex 200 SEC); not shown: His6, C-terminal, kept
B2: human nectin-2 V-set domain (residues 1-158) fused with the Fc region of human IgG (Fc fusion)
chain: QDVRVQVLPEVRGQLGGTVELPCHLLPPVPGLYISLVTWQRPDAPANHQNVAAFHPKMGPSFPSPKPGSERLSFVSAKQSTGQDTEAELQDATLALHGLTVEDEGNYTCEFATFPKGSVRGMTWLRV
notes: signal peptide in the construct; human nectin cell adhesion molecule 2 (nectin-2), V-set domain, residues 1-158; also called V-set-Fc; source: Expi293F, transiently transfected, purified from supernatant (protein G resin, SEC)

Experiments:
[1] = molecular target: the molecule itself; experiment: cryo-EM structure; HHV-6B gB-His at 10 mg/ml in PBS with 0.1% DDM; single-particle analysis, C3 symmetry applied, 2.8 Å; postfusion trimer
[2] = molecular target: B1; experiment: co-IP; purified proteins: 4 µg V-set-Fc with 8 µg HHV-6B gB (His- or Flag-tagged), 4°C 2 h, protein G beads overnight at 4°C; six washes in 50 mM HEPES pH 7.4, 150 mM NaCl, 5 mM EDTA, 0.5% NP40; immunoblot with anti-human IgG and anti-His or anti-Flag; conditions: both partners purified
[3] = molecular target: T1, HHV-6B gB ectodomain (residues 1-680, …); experiment: as above; conditions: both partners purified

Binder	stoichiometry N [1]	binding result [2]	binding result [3]
B1	3		
B2		binds	binds
